In the supplement of paper PMC10567573:

B1: COX4I1 (parent)
chain: VAHVKHLSASQKALKEKEKASWSS

Variants of: B1
Test: protein stability index of a GFP-peptide fusion (GPS, HEK-293T) (PSI 1-6); higher = more stable
Details: c terminus: a fixed tail appended
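Further: lentivirally expressed fusions sorted by FACS into six bins by GFP to DsRed ratio, PSI derived from sequencing read proportions per bin multiplied by bin number.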

Protein stability index: each site, then its substitutions
V4: Q 2.73 | R 2.91 | S 3.35 | T 4.15 | W 3.25 | Y 3.27
K5: A 3.67 | C 2.61 | D 3.27 | E 3.69 | F 2.45 | G 3.88 | H 2.93 | I 2.4 | L 3.28 | M 2.78 | N 3.45 | P 3.64 | Q 3.12 | R 2.65 | S 3.72 | T 3.66 | V 3.1 | W 2.65 | Y 2.55
H6: A 3.24 | C 3.21 | D 3.81 | E 3.87 | F 2.78 | G 3.45 | I 3.24 | K 3.51 | L 3.3 | M 3.12 | N 3.38 | P 3.98 | Q 4.45 | R 3.41 | S 3.38 | T 2.97 | V 2.96 | W 2.32 | Y 2.5
L7: A 2.27 | C 3.47 | D 4.03 | E 4.3 | F 3.42 | G 3.99 | H 3.72 | I 3.79 | K 3.43 | M 3.4 | N 3.85 | P 3.91 | Q 3.36 | R 2.99 | S 3.6 | T 3.54 | V 3.68 | W 2.84 | Y 3.36
S8: A 3.57 | C 2.41 | D 3.86 | E 3.6 | F 2.2 | G 3.64 | H 3.22 | I 3.1 | K 3.46 | L 3.02 | M 2.92 | N 3.53 | P 3.62 | Q 3.24 | R 3.11 | T 3.1 | V 2.7 | W 2.35 | Y 2.55
A9: C 2.42 | D 3.87 | E 4.11 | F 3.55 | G 2.38 | H 3.19 | I 3.35 | K 3.07 | L 3.23 | M 3.03 | N 3.43 | P 3.19 | Q 3.01 | R 3.7 | S 3.59 | T 2.93 | V 3.09 | W 2.47 | Y 2.06
S10: A 2.88 | C 1.97 | D 4.01 | E 3.95 | F 2.83 | G 3.46 | H 3.05 | I 2.37 | K 2.66 | L 2.58 | M 2.94 | N 3.98 | P 3.39 | Q 3.12 | R 3.16 | T 2.56 | V 2.94 | W 2.26 | Y 2.28
Q11: A 3.28 | C 3.21 | D 3.21 | E 3.65 | F 2.56 | G 2.67 | H 3.26 | I 2.94 | K 2.99 | L 2.96 | M 3.25 | N 3.4 | P 3.6 | R 2.83 | S 3.35 | T 2.86 | V 2.65 | W 2.92 | Y 2.08
K12: A 2.61 | C 2.33 | D 3.88 | E 3.52 | F 2.92 | G 2.65 | H 2.84 | I 2.71 | L 3.32 | M 2.77 | N 3.13 | P 3.58 | Q 3.86 | R 3.07 | S 3.64 | T 3.32 | V 3.77 | W 2.69 | Y 2.98
A13: C 3.37 | D 3.82 | E 3.64 | F 2.39 | G 3.3 | H 3.17 | I 2.75 | K 3.16 | L 2.91 | M 2.95 | N 3.58 | P 3.8 | Q 2.63 | R 2.69 | S 3.2 | T 3.27 | V 3.09 | W 2.08 | Y 3.06
L14: A 3.2 | C 3.12 | D 3.92 | E 3.54 | F 2.88 | G 3.1 | H 3.61 | I 3.46 | K 3.65 | M 3.62 | N 3.98 | P 3.41 | Q 3.48 | R 3.7 | S 3.05 | T 2.89 | V 3.38 | W 3.2 | Y 3.09
K15: A 3.78 | C 3.21 | D 3.96 | E 4.08 | F 3.21 | G 3.18 | H 3.85 | I 3.82 | L 3.29 | M 3.94 | N 3.77 | P 2.99 | Q 3.5 | R 3.33 | S 4.04 | T 3.48 | V 3.2 | W 2.77 | Y 3
E16: A 3.67 | C 2 | D 3.48 | F 2.21 | G 2.38 | H 3.56 | I 2.54 | K 3.17 | L 2.36 | M 2.46 | N 3.05 | P 2.75 | Q 2.72 | R 2.8 | S 2.64 | T 2.93 | V 2.03 | W 2.31 | Y 2.56
K17: A 3.62 | C 2.83 | D 3.92 | E 3.9 | F 3.31 | G 3.86 | H 3.26 | I 2.83 | L 2.71 | M 3.01 | N 3.81 | P 3.32 | Q 3.53 | R 3.49 | S 3.23 | T 3.21 | V 2.95 | W 2.35 | Y 3.06
E18: A 2.92 | C 3.38 | D 3.15 | F 2.51 | G 3.13 | H 3.64 | I 3.15 | K 2.92 | L 2.69 | M 2.13 | N 2.98 | P 2.52 | Q 4.05 | R 2.77 | S 3.02 | T 2.87 | V 2.59 | W 2.69 | Y 2.67
K19: A 3.86 | C 2.79 | D 3.85 | E 4.5 | F 2.64 | G 3.52 | H 2.89 | I 3.21 | L 2.48 | M 2.7 | N 3.4 | P 3.63 | Q 3.02 | R 3.71 | S 3.52 | T 3.17 | V 3.03 | W 3.46 | Y 2.28
A20: C 3.28 | D 3.27 | E 1.71 | F 3.13 | G 3.25 | H 3.23 | I 2.76 | K 3.48 | L 2.86 | M 2.39 | N 3.05 | P 3.36 | Q 2.57 | R 3.65 | S 3.16 | T 3.25 | V 3.21 | W 2 | Y 2.29
S21: A 3.98 | C 3.74 | D 4.18 | E 4.42 | F 3.72 | G 3.6 | H 3.46 | I 3.68 | K 3.47 | L 3.16 | M 3.39 | N 3.75 | P 3.73 | Q 4.07 | R 3.49 | T 3.32 | V 3.96 | W 3.24 | Y 3.32
W22: A 5.14 | C 4.97 | D 4.85 | E 5.33 | F 4.6
